Assay results taken from publication PMC10786891, “Massively parallel profiling of RNA-targeting CRISPR-Cas13d”.
Substitutions are numbered along the chain they refer to. Names may count otherwise.

B1: target 2 MT 5'PFS GUG 3'PFS CCG (mixed)
RNA 1: CACCCGUGCAAAAUUGCAGGGGUCUAAAACCUUCUCCAAAUUGUUUCAUCCU
RNA 2: GGGAAUGGAUCCACAUCUACGAAUUCGUGAGGAUGAAACAAUUUGGAGAAGCCGAGAUCGGAAGAGCACACGU
B2: target 2 MT 5'PFS CUU 3'PFS AGA (mixed)
RNA 1: B1 RNA 1
RNA 2: B1 RNA 2 with G27C, G29U, C52A, C53G, G54A
B3: target 2 MT 5'PFS UAU 3'PFS UCA (mixed)
RNA 1: B1 RNA 1
RNA 2: B1 RNA 2 with G27U, U28A, G29U, C52U, G54A
B4: target 2 MT 5'PFS CUU 3'PFS AGC (mixed)
RNA 1: B1 RNA 1
RNA 2: B1 RNA 2 with G27C, G29U, C52A, C53G, G54C
B5: target 2 MT 5'PFS CUU 3'PFS CGU (mixed)
RNA 1: B1 RNA 1
RNA 2: B1 RNA 2 with G27C, G29U, C53G, G54U
B6: target 2 MT 5'PFS CUU 3'PFS AGG (mixed)
RNA 1: B1 RNA 1
RNA 2: B1 RNA 2 with G27C, G29U, C52A, C53G
B7: target 2 MT 5'PFS UAU 3'PFS UCG (mixed)
RNA 1: B1 RNA 1
RNA 2: B1 RNA 2 with G27U, U28A, G29U, C52U
B8: target 2 MT 5'PFS UCU 3'PFS UCC (mixed)
RNA 1: B1 RNA 1
RNA 2: B1 RNA 2 with G27U, U28C, G29U, C52U, G54C
B9: target 2 MT 5'PFS CUU 3'PFS CGG (mixed)
RNA 1: B1 RNA 1
RNA 2: B1 RNA 2 with G27C, G29U, C53G
B10: target 1 G13U,G15A (mixed)
RNA 1: CACCCGUGCAAAAAUGCAGGGGUCUAAAACUGAGCGGAUAACCUCUCUAUGG
RNA 2: GGGAAUGGAUCCACAUCUACGAAUUCGUACCAUAGAAAUGUUAUCCGCUCACCGAGAUCGGAAGAGCACACGU
B11: target 2 MT 5'PFS CUU 3'PFS CGC (mixed)
RNA 1: B1 RNA 1
RNA 2: B1 RNA 2 with G27C, G29U, C53G, G54C
B12: target 2 MT 5'PFS CUU 3'PFS AGU (mixed)
RNA 1: B1 RNA 1
RNA 2: B1 RNA 2 with G27C, G29U, C52A, C53G, G54U
B13: target 2 MT 5'PFS CUU 3'PFS CGA (mixed)
RNA 1: B1 RNA 1
RNA 2: B1 RNA 2 with G27C, G29U, C53G, G54A
B14: target 2 MT 5'PFS AAG 3'PFS CUA (mixed)
RNA 1: B1 RNA 1
RNA 2: B1 RNA 2 with G27A, U28A, C53U, G54A
B15: target 2 MT 5'PFS AAG 3'PFS CUC (mixed)
RNA 1: B1 RNA 1
RNA 2: B1 RNA 2 with G27A, U28A, C53U, G54C
B16: target 2 MT 5'PFS UGA 3'PFS AGA (mixed)
RNA 1: B1 RNA 1
RNA 2: B1 RNA 2 with G27U, U28G, G29A, C52A, C53G, G54A
B17: target 2 MT 5'PFS GUG 3'PFS AAU (mixed)
RNA 1: B1 RNA 1
RNA 2: B1 RNA 2 with C52A, C53A, G54U
B18: target 2 MT 5'PFS AAG 3'PFS CUG (mixed)
RNA 1: B1 RNA 1
RNA 2: B1 RNA 2 with G27A, U28A, C53U

Each binder was assayed against T1, EsCas13d, nuclease-dead (Eubacterium siraeum, UniProt B0MS50, R295A;H300A;R849A;H854A) (assay: crRNA (strand 1, pre-loaded); Mg2+; 40 mM Tris-HCl pH 7.5, 150 mM NaCl, 6 mM MgCl2, 1 mM DTT, 0.1% Tween-20, 0.2 mg/ml BSA; 25 C; 10 min per concentration, then washed). Conditions: tags: His6-TwinStrep-SUMO cleaved; N-terminal SNAP kept (SNAP-Surface 488); label: 3' end held by stalled T7 RNA polymerase.
T1 sequence: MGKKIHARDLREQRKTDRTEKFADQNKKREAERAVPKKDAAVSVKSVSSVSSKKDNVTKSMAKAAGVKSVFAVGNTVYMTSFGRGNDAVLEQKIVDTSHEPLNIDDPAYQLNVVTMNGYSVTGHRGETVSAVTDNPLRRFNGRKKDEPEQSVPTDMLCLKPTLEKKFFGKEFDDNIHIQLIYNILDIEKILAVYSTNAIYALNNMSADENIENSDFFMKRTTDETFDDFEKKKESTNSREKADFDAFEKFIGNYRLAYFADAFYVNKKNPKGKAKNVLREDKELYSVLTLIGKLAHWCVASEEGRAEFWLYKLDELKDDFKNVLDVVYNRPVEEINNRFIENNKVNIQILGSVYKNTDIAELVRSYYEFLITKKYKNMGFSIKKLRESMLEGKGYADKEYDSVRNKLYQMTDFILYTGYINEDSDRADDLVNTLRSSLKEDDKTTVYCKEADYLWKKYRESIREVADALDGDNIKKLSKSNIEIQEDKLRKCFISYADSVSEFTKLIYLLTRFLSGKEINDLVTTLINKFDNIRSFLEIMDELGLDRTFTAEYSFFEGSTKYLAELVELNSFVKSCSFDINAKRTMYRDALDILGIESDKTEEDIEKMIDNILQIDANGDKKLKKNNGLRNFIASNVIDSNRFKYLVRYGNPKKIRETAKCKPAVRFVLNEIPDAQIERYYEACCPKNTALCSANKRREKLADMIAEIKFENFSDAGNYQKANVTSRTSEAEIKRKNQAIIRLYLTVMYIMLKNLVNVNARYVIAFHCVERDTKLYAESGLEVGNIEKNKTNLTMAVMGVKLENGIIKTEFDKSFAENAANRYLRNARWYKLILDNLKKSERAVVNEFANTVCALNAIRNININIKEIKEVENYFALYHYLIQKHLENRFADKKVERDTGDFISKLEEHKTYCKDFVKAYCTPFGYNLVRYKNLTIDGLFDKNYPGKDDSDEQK

Binder | Kd [nM]
B1 | 13.6 ± 0.9
B2 | 2.9 ± 0.4
B3 | 24 ± 5
B4 | 2.28 ± 0.22
B5 | 3.8 ± 0.5
B6 | 2.4 ± 0.4
B7 | 27.2 ± 3.2
B8 | 7.2 ± 0.7
B9 | 2.9 ± 0.4
B10 | 22 ± 4
B11 | 5 ± 0.4
B12 | 3.1 ± 0.4
B13 | 3.4 ± 0.4
B14 | 4.4 ± 0.6
B15 | 10 ± 1.6
B16 | 5.4 ± 0.5
B17 | 8.6 ± 1
B18 | 4.9 ± 0.7
